This note sets out measurements from patent US20140010832A1.

Common to all, as to assay: ELISA; cytokine coated, ECM protein 0.02 to 320 nM, KD by non-linear fit
Assay [1] concerns the target Fibronectin.
Assay [2] deals with Fibrinogen.
Assay [3] concerns the target Vitronectin.
Assay [4] has as its target Tenascin C.
Assay [5] addresses Osteopontin.

Sequence of Fibronectin (P02751 32-2477): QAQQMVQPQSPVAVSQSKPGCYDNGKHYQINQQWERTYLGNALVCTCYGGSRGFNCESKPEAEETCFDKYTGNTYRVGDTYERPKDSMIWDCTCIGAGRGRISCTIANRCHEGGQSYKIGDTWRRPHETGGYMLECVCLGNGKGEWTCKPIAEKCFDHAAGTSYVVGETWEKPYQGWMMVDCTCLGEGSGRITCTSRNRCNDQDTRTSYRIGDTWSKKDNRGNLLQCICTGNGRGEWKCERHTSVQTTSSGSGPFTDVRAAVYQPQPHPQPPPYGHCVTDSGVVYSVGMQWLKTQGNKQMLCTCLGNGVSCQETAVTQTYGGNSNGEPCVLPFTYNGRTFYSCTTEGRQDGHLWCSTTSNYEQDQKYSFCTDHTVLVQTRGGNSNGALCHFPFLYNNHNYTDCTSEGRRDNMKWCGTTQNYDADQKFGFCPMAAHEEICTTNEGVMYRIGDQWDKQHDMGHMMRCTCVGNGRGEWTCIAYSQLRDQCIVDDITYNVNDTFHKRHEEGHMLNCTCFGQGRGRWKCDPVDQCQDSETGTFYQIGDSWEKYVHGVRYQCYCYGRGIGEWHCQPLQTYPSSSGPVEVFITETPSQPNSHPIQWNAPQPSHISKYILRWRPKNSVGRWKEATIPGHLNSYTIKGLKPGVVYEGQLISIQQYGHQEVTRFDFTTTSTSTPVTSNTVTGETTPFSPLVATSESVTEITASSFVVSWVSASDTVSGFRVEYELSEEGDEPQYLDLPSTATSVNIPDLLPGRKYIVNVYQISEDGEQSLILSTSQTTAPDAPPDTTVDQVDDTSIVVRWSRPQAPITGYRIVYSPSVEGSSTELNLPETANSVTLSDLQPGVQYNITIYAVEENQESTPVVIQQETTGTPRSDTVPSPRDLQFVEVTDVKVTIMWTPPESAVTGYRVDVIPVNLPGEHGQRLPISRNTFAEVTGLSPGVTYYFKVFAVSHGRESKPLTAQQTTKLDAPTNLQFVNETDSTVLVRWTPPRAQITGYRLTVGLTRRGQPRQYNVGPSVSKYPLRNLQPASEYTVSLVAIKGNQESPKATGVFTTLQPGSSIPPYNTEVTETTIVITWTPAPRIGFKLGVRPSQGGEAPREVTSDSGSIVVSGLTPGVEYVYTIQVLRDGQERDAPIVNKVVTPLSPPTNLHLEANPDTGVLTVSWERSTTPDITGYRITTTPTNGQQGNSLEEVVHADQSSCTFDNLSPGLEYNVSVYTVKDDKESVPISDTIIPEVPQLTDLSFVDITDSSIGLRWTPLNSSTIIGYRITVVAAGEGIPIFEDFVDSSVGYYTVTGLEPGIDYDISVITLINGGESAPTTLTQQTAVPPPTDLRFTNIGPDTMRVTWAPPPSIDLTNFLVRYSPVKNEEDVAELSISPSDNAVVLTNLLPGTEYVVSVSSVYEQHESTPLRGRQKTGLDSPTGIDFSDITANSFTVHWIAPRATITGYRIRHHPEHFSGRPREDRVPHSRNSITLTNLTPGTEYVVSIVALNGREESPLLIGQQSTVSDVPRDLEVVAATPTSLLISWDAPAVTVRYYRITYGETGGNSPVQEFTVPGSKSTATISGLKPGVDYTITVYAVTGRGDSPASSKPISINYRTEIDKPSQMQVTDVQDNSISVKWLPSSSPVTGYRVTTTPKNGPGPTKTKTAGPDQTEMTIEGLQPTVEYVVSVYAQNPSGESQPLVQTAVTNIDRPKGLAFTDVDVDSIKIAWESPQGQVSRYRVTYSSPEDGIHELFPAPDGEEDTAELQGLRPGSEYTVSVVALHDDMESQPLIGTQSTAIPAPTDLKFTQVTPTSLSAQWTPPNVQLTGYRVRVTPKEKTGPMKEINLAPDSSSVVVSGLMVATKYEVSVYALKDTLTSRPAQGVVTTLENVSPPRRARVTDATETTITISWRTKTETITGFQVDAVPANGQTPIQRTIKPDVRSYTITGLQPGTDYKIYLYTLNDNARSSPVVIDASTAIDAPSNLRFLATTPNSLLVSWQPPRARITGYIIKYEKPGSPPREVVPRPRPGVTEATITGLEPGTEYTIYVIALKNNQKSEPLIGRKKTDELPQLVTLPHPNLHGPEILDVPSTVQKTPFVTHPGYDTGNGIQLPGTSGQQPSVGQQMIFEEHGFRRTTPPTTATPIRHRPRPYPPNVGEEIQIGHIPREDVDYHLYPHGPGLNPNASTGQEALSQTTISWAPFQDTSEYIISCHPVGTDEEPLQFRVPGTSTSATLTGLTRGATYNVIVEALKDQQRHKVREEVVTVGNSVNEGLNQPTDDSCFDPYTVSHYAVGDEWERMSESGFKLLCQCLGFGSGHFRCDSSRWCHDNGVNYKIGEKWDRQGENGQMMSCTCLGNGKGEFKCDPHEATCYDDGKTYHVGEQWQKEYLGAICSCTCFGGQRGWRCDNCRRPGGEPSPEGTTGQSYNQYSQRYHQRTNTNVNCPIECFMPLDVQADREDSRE
Sequence of Vitronectin (P04004 20-478): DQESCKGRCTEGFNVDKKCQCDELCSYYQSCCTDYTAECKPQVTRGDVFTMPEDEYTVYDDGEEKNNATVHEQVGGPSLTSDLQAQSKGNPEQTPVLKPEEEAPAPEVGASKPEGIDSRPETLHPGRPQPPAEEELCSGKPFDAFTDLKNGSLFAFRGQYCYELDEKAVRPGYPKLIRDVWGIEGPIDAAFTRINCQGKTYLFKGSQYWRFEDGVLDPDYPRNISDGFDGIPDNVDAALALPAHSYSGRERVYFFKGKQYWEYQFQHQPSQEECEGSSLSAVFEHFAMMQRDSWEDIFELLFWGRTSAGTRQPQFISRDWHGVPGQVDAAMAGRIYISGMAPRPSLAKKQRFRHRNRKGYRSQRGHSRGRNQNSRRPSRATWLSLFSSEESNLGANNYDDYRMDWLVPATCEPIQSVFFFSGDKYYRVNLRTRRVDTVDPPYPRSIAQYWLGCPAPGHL
Sequence of Osteopontin (P10451 17-314): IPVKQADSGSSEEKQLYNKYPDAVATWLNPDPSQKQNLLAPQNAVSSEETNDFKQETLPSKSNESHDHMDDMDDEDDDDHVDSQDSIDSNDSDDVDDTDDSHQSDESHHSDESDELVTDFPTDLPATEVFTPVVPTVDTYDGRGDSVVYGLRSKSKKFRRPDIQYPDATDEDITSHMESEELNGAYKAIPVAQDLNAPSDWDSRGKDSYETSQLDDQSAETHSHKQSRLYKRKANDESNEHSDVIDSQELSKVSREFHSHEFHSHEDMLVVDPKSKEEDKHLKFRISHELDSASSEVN
Sequence of human VEGF-A121-PlGF2123-144 (P15692 other isoform, or with tags, fused parts or gaps): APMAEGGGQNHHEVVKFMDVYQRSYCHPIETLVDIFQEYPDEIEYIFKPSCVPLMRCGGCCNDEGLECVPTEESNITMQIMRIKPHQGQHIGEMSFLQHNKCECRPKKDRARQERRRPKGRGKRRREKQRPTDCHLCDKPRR
Sequence of human PDGF-BB (P01127 82-190 limits assumed): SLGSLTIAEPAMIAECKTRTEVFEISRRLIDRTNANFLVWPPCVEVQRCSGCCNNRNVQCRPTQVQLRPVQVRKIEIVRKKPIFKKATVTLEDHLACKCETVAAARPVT
Sequence of VEGF-A165 (P15692 other isoform, or with tags, fused parts or gaps limits assumed): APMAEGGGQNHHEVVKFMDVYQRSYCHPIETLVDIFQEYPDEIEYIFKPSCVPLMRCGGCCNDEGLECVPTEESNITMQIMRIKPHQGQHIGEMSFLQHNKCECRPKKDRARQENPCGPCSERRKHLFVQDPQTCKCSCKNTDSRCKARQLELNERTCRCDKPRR

For PlGF2 (ligand), the Kd in assay [1] turned out to be 0.0072 µM; in assay [2], 0.0045 µM; in assay [3] it was 0.002 µM; in assay [4] it was 0.0101 µM; in assay [5], 0.0131 µM.
Take “VEGF-A165 (from UniProt P15692 27-191) (ligand)”: the Kd in assay [1] turned out to be 0.0972 µM; in assay [2], 0.301 µM; in assay [3], 0.0709 µM; in assay [4] it was 0.115 µM; in assay [5], 0.071 µM.
As to “human PDGF-BB (from UniProt P01127 82-190) (ligand)”, the Kd in assay [1] is 0.0116 µM; in assay [2] it was 0.25 µM; in assay [3], 0.0105 µM; in assay [4], 0.019 µM; in assay [5], 0.0203 µM.
Take “human VEGF-A121-PlGF2123-144 (from UniProt P15692 207-395) (ligand)”: the Kd in assay [1] was 0.0112 µM; in assay [2], 0.0058 µM; in assay [3], 0.0028 µM; in assay [4], 0.018 µM; in assay [5], 0.0264 µM.
